Assay results from US10100120B2, “Antibody which specifically binds to human CRTH2” (KYOWA HAKKO KIRIN CO., LTD, priority 2015, dated 2018).

Columns and labels:
[1] = target: T1, mutated human CRTH2 with amino acid substitution (Homo sapiens, UniProt Q9Y5Y4, E15A/L14A/P12A); experiment: Epitope analysis using CHO-S cells which express mutated human CRTH2 with amino acid substitution; assay type: binding; settings: mutant P12A, L14A, and E15A; antibody 10 μg/mL; relative to wild-type = 100%
T1 construct: inserting genes encoding various mutants with amino acid substitution obtained by deleting termination codons; expressed in transfected cells; host or cells: CHO-S cells (Lifetechnologies), transient (phmAG1-MNLinker vector)
T1 sequence (Q9Y5Y4 1-395 P12A/L14A/E15A): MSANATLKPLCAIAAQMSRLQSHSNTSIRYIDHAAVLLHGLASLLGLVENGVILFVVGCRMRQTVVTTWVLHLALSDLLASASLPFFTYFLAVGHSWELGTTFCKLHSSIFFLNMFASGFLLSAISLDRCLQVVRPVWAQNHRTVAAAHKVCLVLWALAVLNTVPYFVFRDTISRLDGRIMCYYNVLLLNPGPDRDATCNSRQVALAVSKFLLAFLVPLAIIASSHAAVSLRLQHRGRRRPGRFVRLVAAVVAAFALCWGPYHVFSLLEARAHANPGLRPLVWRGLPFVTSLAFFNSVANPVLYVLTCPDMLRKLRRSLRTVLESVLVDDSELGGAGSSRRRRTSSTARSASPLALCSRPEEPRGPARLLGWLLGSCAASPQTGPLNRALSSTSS
How it was run: (§1)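 CHO-S cells transiently expressing alanine-substituted human CRTH2 extracellular mutants, C-terminally Azami-Green tagged, 24 h post-transfection. Antibodies at 10 μg/mL, 4 °C 1 h, then Alexa647 anti-IgG secondary 4 °C 1 h; flow cytometry on Azami-Green-positive cells. Reactivity = Alexa647 intensity divided by Azami-Green intensity.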

[2] = target: T2, mutated human CRTH2 with amino acid substitution (Homo sapiens, UniProt Q9Y5Y4, L187A/L188A/L189A); experiment: as above; assay type: binding; settings: mutant L187A, L188A, and L189A; antibody 10 μg/mL; relative to wild-type = 100%
T2 construct: inserting genes encoding various mutants with amino acid substitution obtained by deleting termination codons; expressed in transfected cells; host or cells: CHO-S cells (Lifetechnologies), transient (phmAG1-MNLinker vector)
T2 sequence (Q9Y5Y4 1-395 L187A/L188A/L189A): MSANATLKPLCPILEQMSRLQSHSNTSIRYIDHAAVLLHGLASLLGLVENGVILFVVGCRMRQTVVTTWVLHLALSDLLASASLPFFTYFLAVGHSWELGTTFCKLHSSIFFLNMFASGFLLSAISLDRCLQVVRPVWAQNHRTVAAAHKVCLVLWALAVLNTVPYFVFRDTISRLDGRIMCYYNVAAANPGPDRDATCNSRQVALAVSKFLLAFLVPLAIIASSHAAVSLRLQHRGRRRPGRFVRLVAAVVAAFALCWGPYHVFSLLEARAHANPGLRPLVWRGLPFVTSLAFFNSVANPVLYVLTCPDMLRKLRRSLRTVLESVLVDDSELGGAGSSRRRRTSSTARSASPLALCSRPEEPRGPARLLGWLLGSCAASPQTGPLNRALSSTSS
How it was run: as §1

reactivity against cells expressing mutated human CRTH2 [1]: lost | reactivity against cells expressing mutated human CRTH2 [2]: lost
B1: LV0HV1: humanized Lym2 antibody, VL LV0 (SEQ ID NO: 33), VH HV1 (SEQ ID NO: 51) (antibody, V domains shown)
VH: EVQLVESGGGVVQPGRSLRLSCAASGFTFSNYYMAWVRQAPGKGLEWVATISYDGSSTYYRDSVKGRFTISRDNAKNSLYLQMNSLRAEDTATYYCARHRGYYYSGAGYFDYWGQGTMVTVSS
VL: DIVMTQTPLSLPVTPGESASISCRSSQSLEYSDGYTYLEWYLQKPGQSPQVLIYGVSNRFSGVPDRFSGSGSGTDFTLKISRVEAEDVGVYYCFQATHDPLTFGQGTKLEIK
